According to patent US20160251440A1 (Ablynx, published 2016):

T1: human IL-23R extracellular domain Fc-fusion (human, UniProt Q5VWK5 24-355)
T1 construct: extracellular domain; bought; also called IL-23R-Fc
T1 sequence (looked up): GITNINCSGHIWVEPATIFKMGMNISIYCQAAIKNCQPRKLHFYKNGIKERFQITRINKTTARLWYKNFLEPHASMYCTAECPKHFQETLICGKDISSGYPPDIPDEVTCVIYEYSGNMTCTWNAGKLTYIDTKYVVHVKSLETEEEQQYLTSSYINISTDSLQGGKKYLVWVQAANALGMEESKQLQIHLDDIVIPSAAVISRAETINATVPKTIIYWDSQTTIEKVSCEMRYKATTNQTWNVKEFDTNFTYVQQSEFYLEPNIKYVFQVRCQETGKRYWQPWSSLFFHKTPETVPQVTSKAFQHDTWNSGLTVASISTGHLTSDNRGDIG

T2: human IL-23R, cell-expressed (human, UniProt Q5VWK5 24-629)
T2 sequence (looked up): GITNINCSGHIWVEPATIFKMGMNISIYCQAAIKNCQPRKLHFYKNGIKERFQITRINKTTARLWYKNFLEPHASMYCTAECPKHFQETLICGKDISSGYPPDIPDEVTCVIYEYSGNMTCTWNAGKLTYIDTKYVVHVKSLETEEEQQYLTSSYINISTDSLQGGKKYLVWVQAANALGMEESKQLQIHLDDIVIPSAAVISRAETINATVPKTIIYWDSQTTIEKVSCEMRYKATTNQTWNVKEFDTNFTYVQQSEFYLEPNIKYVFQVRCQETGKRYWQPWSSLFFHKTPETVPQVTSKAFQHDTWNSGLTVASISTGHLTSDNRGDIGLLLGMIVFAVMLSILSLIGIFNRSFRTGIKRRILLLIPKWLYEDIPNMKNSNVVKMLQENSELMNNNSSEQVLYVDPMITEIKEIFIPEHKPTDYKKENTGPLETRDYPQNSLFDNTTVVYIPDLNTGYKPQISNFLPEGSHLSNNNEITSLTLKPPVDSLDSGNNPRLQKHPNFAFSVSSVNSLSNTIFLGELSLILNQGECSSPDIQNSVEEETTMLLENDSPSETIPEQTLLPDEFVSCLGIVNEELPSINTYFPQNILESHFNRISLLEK


Experiments:
[1] = target: T3, human IL12Rβ1 extracellular domain Fc-fusion (human, UniProt P42701 24-545); test: competition ELISA, ratio to monovalent IL12Rb1#30
T3 construct: extracellular domain; bought; also called IL12Rβ1-Fc; hIL-12Rβ1-Fc; not shown: Fc part, captured by anti-hIgG

[2] = target: T4, human CD4, cell-expressed (human, UniProt P01730 26-458); test: flow cytometry on MOLM-13 cells (CD4, no IL12R or IL23R), lower left panel
T4 construct: whole, on cells

[3] = target: T3, human IL12Rβ1 extracellular domain …; test: competition ELISA, ratio to monovalent IL12Rb1#30; remark: listed apart in the source
[4] = target: T3, human IL12Rβ1 extracellular domain …; test: competition ELISA, coated IL-12 + IL12Rβ1-Fc
[5] = target: T3, human IL12Rβ1 extracellular domain …; test: competition ELISA, coated IL-23 + IL12Rβ1-Fc
[6] = target: T5, human IL12Rβ1, cell-expressed (human, UniProt P42701 24-662); test: cell-based or functional assay
[7] = target: T5, human IL12Rβ1, cell-expressed; test: cell-based or functional assay; remark: listed apart in the source
[8] = target: T4, human CD4, cell-expressed; test: flow cytometry on activated T cells of donor D838 (very high CD4, moderate IL12R), upper right panel
[9] = target: T3, human IL12Rβ1 extracellular domain …; test: competition ELISA, ratio to monovalent IL12Rb1#31
[10] = target: T3, human IL12Rβ1 extracellular domain …; test: competition ELISA, ratio to monovalent IL12Rb1#31; remark: listed apart in the source
[11] = target: T4, human CD4, cell-expressed; test: flow cytometry on activated T cells of donor D838 (very high CD4), lower left panel
[12] = target: T1, human IL-23R extracellular domain …; test: competition ELISA, ratio to monovalent IL23R#20
[13] = target: T4, human CD4, cell-expressed; test: flow cytometry on MOLM-13 cells (CD4, no IL12R or IL23R), upper right panel
[14] = target: T2, human IL-23R, cell-expressed; test: cell-based or functional assay
[15] = target: T1, human IL-23R extracellular domain …; test: competition ELISA, coated IL-23 + IL-23R-Fc

Binder	fold ctrl [1] [fold]	EC50 (read off the curve) [2] [nM]	fold ctrl [3] [fold]	IC50 [4] [nM]	IC50 [5] [nM]	IC50, IL-17 release, PBMC D840 [6] [nM]	fold ctrl, IL-17 release [6] [fold]	IC50, IFNγ release, PBMC D840 [7] [nM]	IC50, IFNγ release, T cells D839 [7] [nM]	fold ctrl, IFNγ release, PBMC D840 [7] [fold]	fold ctrl, IFNγ release, T cells D839 [7] [fold]	EC50 (read off the curve) [8] [nM]	fold ctrl [9] [fold]	fold ctrl [10] [fold]	EC50 (read off the curve) [11] [nM]	fold ctrl [12] [fold]	EC50 (read off the curve) [13] [nM]	IC50, IL-17 release, PBMC D840 [14] [nM]	IC50 [15] [nM]
IL12Rb1#30-35GS-CD4#8 (bispecific antibody, also called BI#46; T023200046) EVQLVESGGGLVQTGGSLRLSCAASGRTPRLVAMGWFRQTPGKEREFVGEIILSKGFTYYADSVKGRFTISRVNAKNTITMYLQMNSLKSEDTAVYYCAGRQNWSGSPARTNEYEYWGQGTLVTVSSGGGGSGGGGSGGGGSGGGGSGGGGSGGGGSGGGGSEVQLVESGGGSVQPGGSLTLSCGTSGRTFNVMGWFRQAPGKEREFVAAVRWSSTGIYYTQYADSVKSRFTISRDNAKNTVYLEMNSLKPEDTAVYYCAADTYNSNPARWDGYDFRGQGTLVTVSS	0.6	~1	0.5	6.2	3	0.016	875	0.45	0.29	38	552	~1							
IL12Rb1#31-35GS-CD4#8 (bispecific antibody, also called BI#47; T023200047) EVQLVESGGGLVQTGGSLRLSCAASGRTPSIIAMGWFRQTPGKEREFVGEIILSKGFTYYADSVKGRFTISRANAKNTITMYLQMNSLKSEDTAVYYCAARQNWSGNPTRTNEYEYWGQGTLVTVSSGGGGSGGGGSGGGGSGGGGSGGGGSGGGGSGGGGSEVQLVESGGGSVQPGGSLTLSCGTSGRTFNVMGWFRQAPGKEREFVAAVRWSSTGIYYTQYADSVKSRFTISRDNAKNTVYLEMNSLKPEDTAVYYCAADTYNSNPARWDGYDFRGQGTLVTVSS		~1		24	13	0.23	565	1.9	4.1	41		~1	0.8	0.9					
CD4#8-35GS-IL12Rb1#30 (bispecific antibody, also called BI#40; T023200040) EVQLVESGGGSVQPGGSLTLSCGTSGRTFNVMGWFRQAPGKEREFVAAVRWSSTGIYYTQYADSVKSRFTISRDNAKNTVYLEMNSLKPEDTAVYYCAADTYNSNPARWDGYDFRGQGTLVTVSSGGGGSGGGGSGGGGSGGGGSGGGGSGGGGSGGGGSEVQLVESGGGLVQTGGSLRLSCAASGRTPRLVAMGWFRQTPGKEREFVGEIILSKGFTYYADSVKGRFTISRVNAKNTITMYLQMNSLKSEDTAVYYCAGRQNWSGSPARTNEYEYWGQGTLVTVSS	0.5	~1	0.4	7.3	3.6	0.035	1630	0.36	0.28	47	429	~1							
CD4#8-35GS-IL12Rb1#31 (bispecific antibody, also called BI#41; T023200041) EVQLVESGGGSVQPGGSLTLSCGTSGRTFNVMGWFRQAPGKEREFVAAVRWSSTGIYYTQYADSVKSRFTISRDNAKNTVYLEMNSLKPEDTAVYYCAADTYNSNPARWDGYDFRGQGTLVTVSSGGGGSGGGGSGGGGSGGGGSGGGGSGGGGSGGGGSEVQLVESGGGLVQTGGSLRLSCAASGRTPSIIAMGWFRQTPGKEREFVGEIILSKGFTYYADSVKGRFTISRANAKNTITMYLQMNSLKSEDTAVYYCAARQNWSGNPTRTNEYEYWGQGTLVTVSS		~1		28	15	0.17	1710	2.2	1.7	50		~1	0.7	0.8					
CD4#8-35GS-IL23R#20 (bispecific antibody, also called BI#44; T023200044) EVQLVESGGGSVQPGGSLTLSCGTSGRTFNVMGWFRQAPGKEREFVAAVRWSSTGIYYTQYADSVKSRFTISRDNAKNTVYLEMNSLKPEDTAVYYCAADTYNSNPARWDGYDFRGQGTLVTVSSGGGGSGGGGSGGGGSGGGGSGGGGSGGGGSGGGGSEVQLVESGGGLVQAGGSLRLSCAASGRTFSSYAMGWFRQAPGKDREFVAAISWIGESTYYADSVKGRFTISRDNAKNTVYLRMNSLKPEDTAVYYCAADLYYTAYVAAADEYDYWGQGTLVTVSS															~1	1.1	~1	22	15
IL23R#20-35GS-CD4#8 (bispecific antibody, also called BI#43; T023200043) EVQLVESGGGLVQAGGSLRLSCAASGRTFSSYAMGWFRQAPGKDREFVAAISWIGESTYYADSVKGRFTISRDNAKNTVYLRMNSLKPEDTAVYYCAADLYYTAYVAAADEYDYWGQGTLVTVSSGGGGSGGGGSGGGGSGGGGSGGGGSGGGGSGGGGSEVQLVESGGGSVQPGGSLTLSCGTSGRTFNVMGWFRQAPGKEREFVAAVRWSSTGIYYTQYADSVKSRFTISRDNAKNTVYLEMNSLKPEDTAVYYCAADTYNSNPARWDGYDFRGQGTLVTVSS															~1	1.5	~1		11
